Molecular target: human syndecan-1 with C-terminal HA tag (Syn-1-HA), stably expressed on GM00701 cells (human) (UniProt P18827)
Test: radioligand binding; ^125I-apoE-VLDL (2 μg/ml; in Figure 2C supplemented with 3 μg/ml apoE) on GM00701 or GM00701/Syn-1-HA cells, 4°C, 3 h, 20 mM Hepes pH 7.4, 150 mM NaCl, 2 mM CaCl2, 1% BSA; without or with unlabeled apoE-VLDL (100 μg/ml); specific binding = total minus non-competable

UniProt P18827, sequence (P18827 23-310): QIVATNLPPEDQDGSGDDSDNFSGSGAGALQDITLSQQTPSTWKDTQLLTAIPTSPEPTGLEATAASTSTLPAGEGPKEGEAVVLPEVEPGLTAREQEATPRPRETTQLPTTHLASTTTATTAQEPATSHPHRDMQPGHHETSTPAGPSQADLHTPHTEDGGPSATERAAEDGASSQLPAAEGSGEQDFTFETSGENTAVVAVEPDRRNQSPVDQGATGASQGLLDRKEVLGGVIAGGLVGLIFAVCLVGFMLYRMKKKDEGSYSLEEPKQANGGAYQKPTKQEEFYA

fold increase in specific binding over control GM00701 cells: 5 fold
Substance: apoE-VLDL (very low density lipoprotein particles with apoB100 and apoE, from rabbit plasma) (from UniProt P18287 19-311; P17165 1-144) (complex)

— article PMC1592478
